Test: soluble on expression in E. coli; label from the status in PepcDB or PDB records

| Sequence | soluble on expression in E. coli |
| --- | --- |
| MAFEMAPADPTLDLNMQLTKLGHGLLSGKYSMPATQKDATTGDPRQEGIPPRMFKNVIAASHAEFSSMRQQDALDFFLHLVGKVERASNTTPDLDPSRSFKFGIEEKILCPSGKVGYNKREDCILSLNIPLHEATNKDELEAFHKQKAGKGLEENDMRSSDEIVRPRVPLEACLANFASSEPIEDYYSSALKGMTTAIKTTGLTSFPDYLVLHMRKFVMEEGWVPKKLDVYIDVPDVIDISHMRSKGLQPGEELLPDGVPEEVMESAQPVANEEIVAQLVSMGFSQLHCQKAAINTSNAGVEEAMNWLLSHMDDPDIDAPISHQTSDIDQSSVDTLLSFGFAEDVARKALKASGGDIEKATDWVFNNPNASVSDMDVSSSNSAQTPAQSGLPDGGGKYKLFGIVSHMGTSVHCGHYVAHILKEGRWVIFNDDKVGISTDPPKDMGYVYFFQRLD | soluble |
| MGSDKIHHHHHHMEKKVLIVGISQKQKDFDYSMEELANLAAANNMEVVGEIRQNIDRENRATYVGKGKVDEIKGLAEMQDARLIIFNDELSPSQIRNLEEALELDVMDRTGLILAIFANRAKTKEAQLQVQIAKLQYELPRIFGQGEDMDQQSGKGGLSNRGSGEKKIETDRRTIKYQIRHLQKELDMLVDDREVRRRKRKKNEIPVVSLVGYTNAGKSTTMNGLVRAYSETAEKQVFEKDMLFATLETSVREIVLPDNKQFLLTDTVGFVSKLPHQLVKAFRSTLEEARDADLLIHVVDYSDPHYKTMMKTTEETLKAVGVEDVPVIYAYNKADLIEGEIYPKQTENTIVFSAREKESLEFLTEVIRKELFASYEKATFLIPFEAGNVVAYLNDHADVLATEYLENGTQIVAEVSPADLQKLAEYQVAE | not soluble |
| MSLTEPRIVATYHIASDAERIEQRALALAIEQSVECPLEAIGDPAIVANIVGRVEDVAELQPGRYAVRIGLAAATAPAEPGQLLNMLFGNSSIQPDIALADVELPAHYLTAFGGPRVGLAGIRTLTGAQSRALTASALKPQGLSPAALASIAHQLALGGVDLIKDDHGLADQAFSPFAERAAAVGKAVREANAARGGRTLYAPNISGTLDDMRRQLGVIRDEGIGAVLVAPMIVGVSNFHAIVKEAAGLVVVAHPAMAGAAKIAAPLLLGRLFRLFGADATVFPNYGGRFAYSTASCLALAQAARDPFGKLNACIPTPAGGIMLQRVNELLRFYGQDVMLLIGGSLLASRERLTEQASRFVNKVADYGQREGHHHHHH | soluble |
| STDISTVASPLFEGTEGCFLLYDASTNAEIAQFNKAKCATQMAPDSTFKIALSLMAFDAEIIDQKTIFKWDKTPKGMEIWNSNHTPKTWMQFSVVWVSQEITQKIGLNKIKNYLKDFDYGNQDFSGDKERNNGLTEAWLESSLKISPEEQIQFLRKIINHNLPVKNSAIENTIENMYLQDLDNSTKLYGKTGAGFTANRTLQNGWFEGFIISKSGHKYVFVSALTGNLGSNLTSSIKAKKNAITILNTLNL | soluble |
| MGHHHHHHSHMTDRQDIQKSMAAFKNLSAQCQEVRKRKELELQILTEAIRNWEGDDIKTLGNVTYMSQVLIQCAGSEEKNERYLLLFPNVLLMLSASPRMSGFIYQGKLPTTGMTITKLEDSENHRNAFEISGSMIERILVSCNNQQDLQEWVEHLQKQTKVTSVG | soluble |
| MAQDGDRHHIFVSAPPPPPPSSSIPAPSQPNRLEKEPLIDEETDMIDESRATYWKGCEFLKASGLYSSKCELV | not soluble |
| MGSDKIHHHHHHMAEKQYDFTHVPKRQGNSIKWGVLKEKELPMWIAEMDFKIAPEIMASMEEKLKVAAFGYESVPAEYYKAVADWEEIEHRARPKEDWCVFASGVVPAISAMVRQFTSPGDQILVQEPVYNMFYSVIEGNGRRVISSDLIYENSKYSVNWADLEEKLATPSVRMMVFCNPHNPIGYAWSEEEVKRIAELCAKHQVLLISDEIHGDLVLTDEDITPAFTVDWDAKNWVVSLISPSKTFNLAALHAACAIIPNPDLRARAEESFFLAGIGEPNLLAIPAAIAAYEEGHDWLRELKQVLRDNFAYAREFLAKEVPEVKVLDSNASYLAWVDISALGMNAEDFCKYLREKTGLIISAGNGYRGNGHEFVRINLACPKELVIDGMQRLKQGVLNLNN | not soluble |
| QVQLQQPGSVLVRPGASVKLSCKASGFTFTSSWMHWAKQRPGQGLEWIGEIHPNSGNTHYNEKFKGKATLTVDTSSSTAYVDLSSLTSEDSAVYYCARMRYGDYYAMDNWGQGTSVTVSSAKTTAPPVYPLAPVCGDTTGSSVTLGCLVKGYFPESVTLLWNSGSLSSGVHTFPAVLQSDLYTLSSSVTVTSSTWPSQSITCNVAHPASSTKVDKKIEPRG | soluble |
| MGSDKIHHHHHHMEIIKKKFPKIKRDYLDTLQINIGYKCNQACSHCHVDSSPSRTEMMSDDIIKLIPKVIKANEIKLLDITGGAPELHPKFKQLVIEVRSLNVEVMDRCNLTILKEPGYESLAGFLASNKVQITASLPCYLEGNVDKQRGKGVFEKSILALKQLNNLGYGIKDKGLLLNLVYNPSTPQLPPSQKELEDIYRRELKERYGIFFSNLYVLANMPINRYENYLKTIGKLEEYNKLLKDNHNPGNINSVMCRSTLSVDWKGFLYDCDFNQQLGMKRNGNVKHLNDLLIPLVSLKNNPISTGNHCFGCTAGAGSSCGGELT | not soluble |
| MGHHHHHHSHMNTKTMRLPPRRVLTADKRKERDAFISSVTDNPPEIAKFPSPPPKLVPPPVNPISKKSSTAAAEPIGSNQLMLAGYLSHEYLTQGTLFGEQWNQARAQAESSKIKPSHTVEPAEECEPKRKRYREVANLLRSDGAQLPGIVNPAQLARFLKL | soluble |
| MSLLSKVVTQIKGFLHDSVDKASDDGRTARQLIRDVGENEEKIKEALVESRSQAIISKQKVEDKQSAIALSKKRAAKAVELDKEDLARTILVEKRQQESDLAALQNQQAKFDNIVVTLTSRFNDIQKKRSEMERKADSIDLRSKVAAATEEATKLLDVGNFASYDSASKVFDRLEDNIAKKEAKSQARGEFIDAEKDKQDELVSLDRHGLDESIEDELAALRAMNKKQELEHHHHHH | not soluble |
| AIAPTATYAALIHADLDVLWGLLLDKLQSDEQFMPGLERAEIVPLSVAEDPTGVARFRQQHDRRLYFSDGRLVEERVTIDEERKNILLELRNDARYTGYVSTVLLPCPFPEATSGAHVLVRTMDWRAKRSLTDDEIEEGELLATKIRESTLRLKHEVESLRWSLDDSKDPDDE | soluble |
| RTQFKINSIPTVSDPYHINYDLTFSLNFASNKRNTYGTGWLIDWKGDENNPEKNDPFKVYLATNLHVIDALRNNNDYEPYNKDSNNQAFNSEEITRFFSIGKYTYPSIFSELNFIINAREAFVSIQTSTIPKTAYAAVNFVETQGEDESYTDSLSTDNKRDIYADFAVI | not soluble |
| MIRHFKHKGLQLFFETGDKSGIRPDHASRLARQLRQLNDAVNPREMNIPGWKLHPLSGDLSGYWSVMVNGNWRMIFVFDGEDVILVDYRDDH | not soluble |
| VLTCNEAFARMRGQSVKEIEGSSIVSLYAPEDQQMVKDKLKITDSTGFCSCQAKMMRKDGTIFPVQIDVVGLKDENGQIMYRIVTVQDSTER | not soluble |
| MAHHHHHHMTERSPALVPAVSLLREELQLLNGVVEGQARSRVYRHHIFFRKASFLRSALRNALPQFARRAADPTDLRTVAGRLLTLTIRCAESATLELSASHIDTVSVALLLLAITSRIGCVLCVVLGRKPETFGKLHFIGSKFGVKYKRSRSEAELAEETIGVATPIRRRTIGGVIEAVIK | not soluble |
| MMKKTPTSTKDSLPNKEMNDLPRLASAVLPLCSQHPGQCGLFPLEKSLDAFAARYRLAEMAEHTLDVQYYIWQDDMSGRLLFSALLAAAKRGVRVRLLLDDNNTPGLDDILRLLDSHPRIEVRLFNPFSFRLLRPLGYITDFSRLNRRMHNKSFTVDGVVTLVGGRNIGDAYFGAGEEPLFSDLDVMAIGPVVEDVADDFARYWYCKSVSPLQQVLDVPEGEMADRIELPASWHNDAMTHRYLRKMESSPFINHLVDGTLPLIWAKTRLLSDDPAKGEGKAKRHSLLPQRLFDIMGSPSERIDIISSYFVPTRAGVAQLLRMVRKGVKIAILTNSLAANDVAVVHAGYARWRKKLLRYGVELYELKPTREQSSTLHDRGITGNSGASLHAKTFSIDGKTVFIGSFNFDPRSTLLNTEMGFVIESETLAQLIDKRFIQSQYDAAWQLRLDRWGRINWVDRHAKKEVILKKEPATSFWKRVMVRLASILPVEWLL | not soluble |
| GMQTTEIDLRLTEVSQQLTMVLVPGLRDSDDEHWQSHWERRFPHWQRIRQREWYQADLDRWVLAIRRELSVCTQPVILIGHSFGALAACHVVQQGQEGIAGVMLVAPAEPMRFEIDDRIQASPLSVPTLTFASHNDPLMSFTRAQYWAQAWDSELVDVGEAGHINAEAGFGPWEYGLKRLAEFSEILIPNR | soluble |
| MRSMTLEQLRTASETGGVSSVTLKGQGGAFLVQINTRSGVAAILTKARNSEPRRFGNPAAALNVLREVGITIGQFDASEWNPDEREPVARSSDNRAKALHKAHEAAAYNEWLAAEIQEAIDDPRPGIPHDEVMARMDARIVRHKAAGAKRA | not soluble |
| MSLLRIRQPKSETVRQFLQTQASRDFSYPMVGATLATPPSEYQVDHTRVRLGHGEESLAQGRIALQKWTQFQLGWVTTFPPALPIQAGEMVAIVARAGGFWWLNACRIVCTIEEPKQFGFAYGTLPAHAESGEERFLIEMDDAGDVWYDILAFSRPNRVSAKLAYPYMRHLQKRFARESAAAMRQAIRPEGHHHHHH | soluble |
| MPEGPEVALTADILEKYFKGKTLEYIDFISGRYSKSEPEGYDDFIANLPLKVSNVDTKGKFLWFELFDPNDKSNKWYIWNTFGLTGMWSLFEAKYTRAVLSFDNELMAYFSDMRNFGTFKFSNSEKELKRKLNELGPDFLKNDDIDISKIKKYKQPIVALLMDQKKIGSGLGNYLVAEILYRAKIDPHKLGSNLTDQEIENLWYWIKYETKLAYDSNHIGYMVNLENESSKIGRKNYHPNIHPTEKEFDFLVYRKKKDPNGNKVIADKIIGSGKNKRTTYWAPAIQKLEHHHHHH | soluble |
| MAYCNPGLESRPNKRNALRRHVVTGIGMKIVIAPDSYKESLSASEVAQAIEKGFREIFPDAQYVSVPVADGGEGTVEAMIAATQGAERHAWVTGPLGEKVNASWGISGDGKTAFIEMAAASGLELVPAEKRDPLVTTSRGTGELILQALESGATNIIIGIGGSATNDGGAGMVQALGAKLCDANGNEIGFGGGSLNTLNDIDISGLDPRLKDCVIRVACDVTNPLVGDNGASRIFGPQKGASEAMIVELDNNLSHYAEVIKKALHVDVKDVPGAGAAGGMGAALMAFLGAELKSGIEIVTTALNLEEHIHDCTLVITGEGRIDSQSIHGKVPIGVANVAKKYHKPVIGIAGSLTDDVGVVHQHGIDAVFSVLTSIGTLDEAFRGAYDNICRASRNIAATLAIGMRNAG | soluble |
| MPLVSVVMPVYNSAATLGAAVRSVLTQTHGDLELLVTDDQSSDGSMDLLREFAAQDERVLPRSSPERGGAGRARNLAIERARGDYVAFLDSDDMWLPEKTEKQLAFAAEGTAPLTFTSYFKMDADHDGESTDWVPNGRVIRAREHVDYRAMLVQDHIGALTAMYDRNVLGTRLMPEMRKRQDYALWLSIMRDGADARGLAEPLAVYRAHQAGSLSSNKLSLVEYNWALYREHENLSVPRATRALAGAVWQSLRNSRILEHHHHHH | not soluble |
